# Source: patent publication US11278600B2, “Human alpha-galactosidase variants” (Codexis, Inc., priority 2014, dated 2022)
# How the values were obtained:
# Type in all cases: biochemical
# [1] = HTP-analysis of yeast culture supernatants, no challenge (MUGal hydrolysis)
# In short: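 GLA variants were expressed in INVSc1 yeast grown in SD-Ura broth with glucose at 30° C., and culture supernatants were collected after 66-84 h. Supernatant was mixed with McIlvaine buffer pH 4.8 and MUGal (2 mM stock) in 50 mM citrate, 200 mM KCl, pH 4.6, incubated at 37° C. for 30-180 minutes, then quenched with sodium carbonate.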
# [2] = HTP-analysis of supernatants pretreated with acid (MUGal hydrolysis); details: for Relative Activity of GLA Variants After Challenge at pH 3.3: activity of the variant/activity of Rd3BB (SEQ ID NO: 13), yeast supernatant; for Relative Activity of GLA Variants After Challenge at pH 3.5: activity of the variant/activity of Rd7BB (SEQ ID NO: 44)
# In short: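 Yeast INVSc1 supernatant, GLA variants; acid challenge: McIlvaine pH 3.3-4.3, 37° C., 1-3 h. Assay: MUGal in McIlvaine pH 4.8 plus citrate pH 4.3, 37° C., 30-180 min, Na2CO3 stop, Ex 355/Em 448 nm.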
# [3] = HTP-analysis of supernatants pretreated with base (MUGal hydrolysis); details: for Relative Activity of GLA Variants After Challenge at pH 9.7: activity of the variant/activity of Rd3BB (SEQ ID NO: 13), yeast supernatant; for Relative Activity of GLA Variants After Challenge at pH 7.5: activity of the variant/activity of Rd7BB (SEQ ID NO: 44)
# In short: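 Supernatants from INVSc1 yeast expressing GLA variants (SD-Ura, 66-84 h, 30° C) were mixed with McIlvaine buffer pH 7.0-8.2 or 200 mM sodium bicarbonate pH 9.1-9.7 and held 1-18 h at 37° C. Residual activity was then measured on MUGal at pH 4.8/4.3, 37° C, 30-180 min, by fluorescence (Ex 355/Em 448 nm).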
# [4] = activity of the variant/activity of Rd3BB (SEQ ID NO: 13), yeast supernatant
# [5] = activity of the variant/activity of Rd7BB (SEQ ID NO: 44)
Molecule,"Relative Activity of GLA Variants After No Challenge (NC) [1, 4]",Relative Activity of GLA Variants After Challenge at pH 3.3 [2],Relative Activity of GLA Variants After Challenge at pH 9.7 [3],"Relative Activity of GLA Variants After No Challenge (NC) [1, 5]",Relative Activity of GLA Variants After Challenge at pH 3.5 [2],Relative Activity of GLA Variants After Challenge at pH 7.5 [3]
"630 (protein, Synthetic Polypeptide sequence of Variant No. 630 of mature Human GLA) LDNGLARTPTMGWLHWERFMCNLDCQEEPDSCISEKLFMEMAERMVTEGWKDAGYEYLCIDDCWMAPQRDSEGRLQADPQRFPHGIRQLANHVHSKGLKLGIYADVGNKTCAGFPGSFGYYDIDAQTFADWGVDLLKFDGCYCDSLENLADGYKHMSLALNRTGRPIVYSCEWPLYMWPFQKPNYTEIRQYCNHWRNFADIDDSWASIKSILDWTSRNQERIVDVAGPGGWNDPDMLVIGNFGLSWDQQVTQMALWAIWAAPLFMSNDLRAISPQAKALLQDKDVIAINQDPLGKQGYQLRKGDNFEVWERPLSGDAWAVAIINRQEIGGPRSYTIPVASLGKGVACNPACFITQLLPVKRQLGFYNWTSRLKSHINPTGTVLLQLENTHQMSLKDLL",+ (+ = 1.5 to 5 relative activity over Rd3BB (SEQ ID NO: 13)),− (− = <1.5 relative activity to Rd3BB (SEQ ID NO: 13)),++ (++ = >5 to 10 relative activity over Rd3BB (SEQ ID NO: 13)),,,
"632 (protein, Synthetic Polypeptide sequence of Variant No. 632 of mature Human GLA) LDNGLARTPTMGWLHWERFMCNLDCQEEPDSCISEKLFMEMAERMVNEGWKDAGYEYLCIDDCWMAPQRDSEGRLQADPQRFPHGIRQLANHVHSKGLKLGIYADVGNKTCAGFPGSFGYYDIDAQTFADWGVDLLKFDGCYCDSLENLADGYKHMSLALNRTGRPIVYSCEWPLYMWPFQKPNYTEIRQYCNHWRNFADIDDSWASIKSILDWTSRNQERIVDVAGPGGWNDPDMLVIGNFGLSWDQQVTQMALWAIMAAPLFMSNDLRAISPQAKALLQDKDVIAINQDPLGKQGYQLRKGDNFEVWERPLSGDAWAVAIINRQEIGGPRSYTIPVASLGKGVACNPACFITQLLPVKRQLGFYNWTSRLKSHINPTGTVLLQLENTMQTSLKDLL",+ (+ = 1.5 to 5 relative activity over Rd3BB (SEQ ID NO: 13)),++ (++ = >5 to 10 relative activity over Rd3BB (SEQ ID NO: 13)),++ (++ = >5 to 10 relative activity over Rd3BB (SEQ ID NO: 13)),,,
"660 (protein, Synthetic Polypeptide sequence of Variant No. 660 of mature Human GLA) LDNGLARTPTMGWLHWERFMCNLDCQEEPDSCISEKLFEEMAERMVTEGWKDAGYEYLCIDDCWMAPQRDSEGRLQADPQRFPHGIRQLANHVHSKGLKLGIYADVGNKTCAGFPGSFGYYDIDAQTFADWGVDLLKFDGCYCDSLENLADGYKHMSLALNRTGRPIVYSCEWPLYMWPFQKPNYTEIRQYCNHWRNFADIDDSWASIKSILDWTSRNQERIVDVAGPGGWNDPDMLVIGNFGLSWDQQVTQMALWAIMAGPLFMSNDLRAISPQAKALLQDKDVIAINQDPLGKQGYQLRKGDLFEVWERPLSGDAWAVAIINRQEIGGPRSYTIPVASLGKGVACNPACFITQLLPVKRQLGFYNWTSRLKSHINPTGTVLLQLENTMQTSLKDLL",,,,+ (>0.5 to 1.5 relative activity over Rd7BB (SEQ ID NO: 44)),+ (>0.5 to 1.5 relative activity over Rd7BB (SEQ ID NO: 44)),− (<0.5 relative activity to Rd7BB (SEQ ID NO: 44))
"631 (protein, Synthetic Polypeptide sequence of Variant No. 631 of mature Human GLA) LDNGLARTPTMGWLHWERFMCNLDCQEEPDSCISEKLFMEMAERMVTEGWKDAGYEYLCIDDCWMAPQRDSEGRLQADPQRFPHGIRQLANHVHSKGLKLGIYADVGNKTCAGFPGSFGYYDIDAQTFADWGVDLLKFDGCYCDSLENLADGYKHMSLALNRTGRPIVYSCEWPLYMWPFQKPNYTEIRQYCNHWRNFADIDDSWASIKSILDWTSRNQERIVDVAGPGGWNDPDMLVIGNFGLSWDQQVTQMALWAIMAAPLFMSNDLRAISPQAKALLQDKDVIAINQDPLGKQGYQLRKGDNFEVWERPLSGDAWAVAIINRQEIGGPRSYTIPVASLGKGVACNPACFITQLLPVKRQLGFYNWTSRLKSHINPTGTVLLQLENTQQMSLKDLL",+ (+ = 1.5 to 5 relative activity over Rd3BB (SEQ ID NO: 13)),+ (+ = 1.5 to 5 relative activity over Rd3BB (SEQ ID NO: 13)),++ (++ = >5 to 10 relative activity over Rd3BB (SEQ ID NO: 13)),,,
"662 (protein, Synthetic Polypeptide sequence of Variant No. 662 of mature Human GLA) LDNGLARTPTMGWLHWERFMCNLDCQEEPDSCISEKLFMEMAERMVTEGWKDAGYEYLCIDDCWMAPQRDSEGRLQADPQRFPHGIRQLANHVHSKGLKLGIYADVGNKTCAGFPGSFGYYDIDAQTFADWGVDLLKFDGCYCDSLENLADGYKHMSLALNRTGRPIVYSCEWPLYMWPFQKPNYTEIRQYCNHWRNFADIDDSWASIKSILDWTSRNQERIVDVAGPGGWNDPDMLIIGNFGLSWDQQVTQMALWAIMAAPLFMSNDLRAISPQAKALLQDKDVIAINQDPLGKQGYQLRKGDNFEVWERPLSGDAWAVAIINRQEIGGPRSYTIPVASLGKGVACNPACFITQLLPVKRQLGFYNWTSRLKSHINPTGTVLLQLENTMQTSLKDLL",,,,+ (>0.5 to 1.5 relative activity over Rd7BB (SEQ ID NO: 44)),+ (>0.5 to 1.5 relative activity over Rd7BB (SEQ ID NO: 44)),+ (>0.5 to 1.5 relative activity over Rd7BB (SEQ ID NO: 44))
"663 (protein, Synthetic Polypeptide sequence of Variant No. 663 of mature Human GLA) LDNGLARTPTMGWLHWERFMCNLDCQEEPDSCISEKLFMEMADRMVTEGWKDAGYEYLCIDDCWMAPQRDSEGRLQADPQRFPHGIRQLANHVHSKGLKLGIYADVGNKTCAGFPGSFGYYDIDAQTFADWGVDLLKFDGCYCDSLENLADGYKHMSLALNRTGRPIVYSCEWPLYMWPFQKPNYTEIRQYCNHWRNFADIDDSWASIKSILDWTSRNQERIVDVAGPGGWNDPDMLVIGNFGLSWDQQVTQMALWAIMAGPLFMSNDLRAISPQAKALLQDKDVIAINQDPLGKQGYQLRKGDNFEVWERPLSGDAWAVAIINRQEIGGPRSYTIPVASLGKGVACNPACFITQLLPVKRQLGFYNATSRLKSHINPTGTVLLQLENTMQTSLKDLL",,,,+ (>0.5 to 1.5 relative activity over Rd7BB (SEQ ID NO: 44)),+ (>0.5 to 1.5 relative activity over Rd7BB (SEQ ID NO: 44)),− (<0.5 relative activity to Rd7BB (SEQ ID NO: 44))
"661 (protein, Synthetic Polypeptide sequence of Variant No. 661 of mature Human GLA) LDNGLARTPTMGWLHWERFMCNLDCQEEPDSCISEKLFMEMAERMVTEGWKDAGYEYLCIDDCWMAPQRDSEGRLQADPQRFPHGIRQLANHVHSKGLKLGIYADVGNKTCAGFPGSFGYYDIDAQTFADWGVDLLKFDGCYCDSLENLADGYKHMSLALNRTGRPIVYSCEWPLYMWPFQKPNYTEIRQYCNHCRNFADIDDSWASIKSILDWTSRNQERIVDVAGPGGWNDPDMLVIGNFGLSWDQQVTQMALWAIMAAPLFMSNDLRAISPQAKALLQDKDVIAINQDPLGKQGYQLRKGDNFEVWERPLSGDAWAVAIINRQEIGGPRSYTIPVASLGKGVACNPACFITQLLPVKRQLGFYNWTSRLKSHINPTGTVLLQLENTMQTSLKDLL",,,,− (<0.5 relative activity to Rd7BB (SEQ ID NO: 44)),− (<0.5 relative activity to Rd7BB (SEQ ID NO: 44)),− (<0.5 relative activity to Rd7BB (SEQ ID NO: 44))
"664 (protein, Synthetic Polypeptide sequence of Variant No. 664 of mature Human GLA) LDNGLARTPPMGWLHWERFMCNLDCQEEPDSCISEKLFMEMAERMVTEGWKDAGYEYLCIDDCWMAPQRDSEGRLQADPQRFPHGIRQLANHVHSKGLKLGIYADVGNKTCAGFPGSFGYYDIDAQTFADWGVDLLKFDGCYCDSLENLADGYKHMSLALNRTGRPIVYSCEWPLYMWPFQKPNYTEIRQYCNHWRNFADIDDSWASIKSILDWTSRNQERIVDVAGPGGWNDPDMLVIGNFGLSWDQQVTHRELWAIMAGPLFMSNDLRAISPQAKALLQDKDVIAINQDPLGKQGYQLRKGDNFEVWERPLSGDAWAVAIINRQEIGGPRSYTIPVASLGKGVACNPACFITQLLPVKRQLGFYNWTSRLKSHINPTGTVLLQLENTMQTSLKDLL",,,,− (<0.5 relative activity to Rd7BB (SEQ ID NO: 44)),− (<0.5 relative activity to Rd7BB (SEQ ID NO: 44)),− (<0.5 relative activity to Rd7BB (SEQ ID NO: 44))
